Assays:
c-Fos = target: T1, c-Fos (UniProt P01100 1-380, limits assumed); assay: similar assays (two-hybrid / co-immunoprecipitation; not specified)
T1 construct: Tested in 'similar assays'; The construct is not described

ATF-2 = target: T2, ATF-2 (UniProt P15336 1-505, limits assumed); assay: as above
T2 construct: Tested in 'similar assays'; The construct is not described
T2 sequence (looked up): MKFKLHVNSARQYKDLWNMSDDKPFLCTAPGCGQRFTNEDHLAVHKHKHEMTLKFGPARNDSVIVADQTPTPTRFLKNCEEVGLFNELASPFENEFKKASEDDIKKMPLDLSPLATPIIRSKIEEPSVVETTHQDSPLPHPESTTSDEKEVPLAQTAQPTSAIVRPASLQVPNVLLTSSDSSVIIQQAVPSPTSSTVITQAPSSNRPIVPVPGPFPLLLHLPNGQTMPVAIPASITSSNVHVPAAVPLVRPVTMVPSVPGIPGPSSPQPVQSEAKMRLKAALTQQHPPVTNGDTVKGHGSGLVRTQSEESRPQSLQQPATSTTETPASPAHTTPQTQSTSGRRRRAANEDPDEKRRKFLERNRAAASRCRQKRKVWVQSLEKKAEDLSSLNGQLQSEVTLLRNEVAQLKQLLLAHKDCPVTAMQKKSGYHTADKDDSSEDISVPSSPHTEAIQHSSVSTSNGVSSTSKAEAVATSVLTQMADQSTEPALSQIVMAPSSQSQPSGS

T1 sequence (P01100 whole entry): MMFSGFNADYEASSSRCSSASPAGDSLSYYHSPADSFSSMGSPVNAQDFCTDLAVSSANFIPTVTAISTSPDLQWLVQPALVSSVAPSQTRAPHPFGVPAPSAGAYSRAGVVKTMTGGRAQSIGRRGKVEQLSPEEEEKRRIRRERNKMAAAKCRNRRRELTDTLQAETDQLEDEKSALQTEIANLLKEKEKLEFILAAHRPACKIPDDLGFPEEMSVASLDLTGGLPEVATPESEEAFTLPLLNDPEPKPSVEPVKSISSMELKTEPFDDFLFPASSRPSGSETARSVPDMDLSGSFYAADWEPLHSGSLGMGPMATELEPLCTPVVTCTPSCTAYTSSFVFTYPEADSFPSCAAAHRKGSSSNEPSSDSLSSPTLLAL

B1: HA-tagged SARI (Suppressor of AP-1, Regulated by IFN), expressed in HeLa cells from Ad.SARI (other)
chain: MHLCGGNGLLTQTDPKEQQRQLKKQKNRAAAQRSRQKHTDKADALHQQHESLEKDNLALRKEIQSLQAELAWWSRTLHVHERLCPMDCASCSAPGLLGCWDQAEGLLGPGPQGQHGCREQLELFQTPGSCYPAQPLSPGPQPHDSPSLLQCPLPSLSLGPAVVAEPPVQLSPSPLLFASHTGSSLQGSSSKLSALQPSLTAQTAPPQPLELEHPTRGKLGSSPDNPSSALGLARLQSREHKPALSAATWQGLVVDPSPHPLLAFPLLSSAQVHF
notes: also called SARI protein; WT SARI; not shown: HA tag
c-Fos
  binding result: no binding
ATF-2
  binding result: no binding
